This test addresses biotinylated IRF3-Flag (UniProt Q14653). Description: BLI; Forte-Bio Octet Red; 10 ug/ml biotinylated IRF3-Flag coupled to biosensors, immersed in ICP27-Flag (50, 200, 500 or 800 nM); proteins in PBS.
UniProt Q14653, sequence (Q14653 whole entry): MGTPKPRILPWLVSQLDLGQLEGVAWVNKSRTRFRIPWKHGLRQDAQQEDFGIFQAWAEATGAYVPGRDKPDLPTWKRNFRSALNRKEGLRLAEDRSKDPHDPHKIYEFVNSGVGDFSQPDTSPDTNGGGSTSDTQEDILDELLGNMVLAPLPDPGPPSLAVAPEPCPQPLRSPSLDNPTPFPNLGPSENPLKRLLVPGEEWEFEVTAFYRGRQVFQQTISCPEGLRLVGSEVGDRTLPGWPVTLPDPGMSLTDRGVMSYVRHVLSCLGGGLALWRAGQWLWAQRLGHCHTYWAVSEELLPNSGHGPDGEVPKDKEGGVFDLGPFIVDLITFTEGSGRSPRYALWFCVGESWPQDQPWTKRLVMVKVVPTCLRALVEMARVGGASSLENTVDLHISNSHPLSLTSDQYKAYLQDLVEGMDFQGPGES

In general, Kd refers to the equilibrium constant for the complex coming apart. “ICP27-Flag (purified from HEK 293F) (from UniProt P28276 1-512) (natural protein)” returned a Kd of 20.3 nM.

For the origin of these results see publication PMC6399465.
